In patent US20090017017A1 (SYMPHOGEN A S, published 2009):

T1: Rhesus D antigen (human, UniProt Q02161 2-417)
T1 construct: whole, on cells; Presented on RhD(+) erythrocytes; also called RhD; RhD antigen
T1 sequence (looked up): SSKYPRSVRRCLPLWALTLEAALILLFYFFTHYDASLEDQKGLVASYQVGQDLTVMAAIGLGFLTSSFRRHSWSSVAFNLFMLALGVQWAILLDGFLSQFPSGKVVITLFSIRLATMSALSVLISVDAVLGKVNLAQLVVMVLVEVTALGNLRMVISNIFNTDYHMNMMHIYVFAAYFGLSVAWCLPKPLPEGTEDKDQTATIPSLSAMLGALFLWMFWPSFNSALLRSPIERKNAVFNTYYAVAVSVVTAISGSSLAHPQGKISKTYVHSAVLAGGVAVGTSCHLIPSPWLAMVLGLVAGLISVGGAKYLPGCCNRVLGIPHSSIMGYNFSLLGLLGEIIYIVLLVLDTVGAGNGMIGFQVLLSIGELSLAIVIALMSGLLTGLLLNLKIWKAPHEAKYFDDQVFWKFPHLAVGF


molecular target: T1, Rhesus D antigen; assay: Fab screening on RBC (agglutination, FACS)
Experimental: (§1) After each round of panning single colonies were picked for analysis of their binding properties to red blood cells in agglutination assays. Briefly, single colonies were inoculated into 2×YT/100 μg/mL carbenicillin/1% glucose and shaken overnight at 37° C. The next day, DeepWell plates were inoculated using 900 μl 2×YT/100 μg/mL carbenicillin/0.1% glucose and 10 μl overnight culture. The plates were shaken for two hours at 37° C., before Fab induction was performed with addition of 300 μl 2×YT/100 μg/mL carbenicillin/0.25 mM IPTG per well. The plate was shaken overnight at 30° C. The following day, the bacteria were pelleted by centrifugation (3200×g, 4° C., 10 minutes), and re-suspended in 100 μl of 0.8 M NaCl, 0.2×PBS, 8 mM EDTA, and incubated for 15 minutes on ice in order to perform a periplasmic extraction of the Fab fragments. The plate was transferred to −20° C. and finally the suspension was thawed and centrifugation was performed for 10 minutes at 4° C. and 3200×g. The periplasmic extract was used in ELISA assays for analysis of Fab content and in agglutination assays to evaluate the binding potential of the individual Fab fragments.
(§2) The agglutination assay was performed as follows: RhD(−) and RhD(+) RBC were mixed in a 1:1 ratio, and washed 3 times in PBS. After the final wash, the cell mix was re-suspended in 1% BSA in PBS at a density of 10% cells, 50 μl was added to each well of a 96-plate. Periplasmic extracts were added to the wells. As a positive control Rhesogamma P immunoglobulin (Aventis) was used according to the manufacturer's instructions. The plates were incubated for one hour at room temperature with gentle shaking. The cells were washed three times with PBS, before the secondary antibody was added (goat anti-human Fab/FITC conjugate, Sigma F5512) in a 1:100 dilution. The plates were left for agglutination for one hour at room temperature without shaking. Fab fragments positive in the agglutination assay was determined by visual inspection, and recorded by taking a picture. Quantization of the binding activity of the Fab fragments was performed by FACS analysis of the agglutination samples.

| Binder | binding result |
| --- | --- |
| RhD321.187G08 (Fab, V domains shown, Tested as Fab in E. coli periplasmic extract (VH on human gamma 1 CH1, vector Em351)) VH: EVQLVESGGGLVKPGGSLRLSCAASGFTFRSYSMNWVRQAPGKGLEWVSSIGSSSIYTYSADSVKGRFTISRDNAKNSLYLQMNSLRAEDTAVYYCARGEPLNYDYIWGRSRLTIHWGQGTLVTVSS VL: LNFMLTQPHSVSESPGKTVTISCTRSSGSIASNYMQWYQQRPGSSPTTVIYEDNRRPSGVPDRFSGSIDSSSNSASLTISGLKTEDEADYYCQSYDSNNWVFGGGTKLTVLG | binds |
| RhD300.134H09 (Fab, V domains shown, Tested as Fab in E. coli periplasmic extract (VH on human gamma 1 CH1, vector Em351)) VH: QVQLVESGGGVVQPGRSLRLSCAASGFTFSSYGMHWVRQAPGKGLEWVAVIWYDGSNKYYADSVKGRFTISRDNSKNTLYLQMNSLRAEDTAVYYCAREFYTRSGLWSQGYSYYMDVWGKGTTVTVSS VL: QTVVTQEPSFSVSPGGTVTLTCGLSSGSVSARYYPSWYQQTPGQPPRTLIHSTNTRSSGVPDRFSGSILGNKAALTITGAQADDESDYYCVLYMGSGPWVFGGGTKLTVLG | binds |
| RhD299.127A12 (Fab, V domains shown, Tested as Fab in E. coli periplasmic extract (VH on human gamma 1 CH1, vector Em351)) VH: QVQLVESGGGVVQPGRSLRLSCAASGFTFSNFGMHWVRQAPGKGLEWVAVIWYDGSNKDYADSVKGRFTISRDNSKRTLYLQMNSLRAEDTAVYYCARELARGRLRDLDYWGQGTLVTVSS VL: QAVVTQEPSLTVSPGGTVTLTCASSTGAVTTGYYPNWFQQKPGQAPRALIYSTSKKHSWTPARFSGSLLGGKAALTLSGVQPEDEAEYYCLLFYGGAQLGVFGGGTKLTVLG | binds |
| RhD319.187A11 (Fab, V domains shown, Tested as Fab in E. coli periplasmic extract (VH on human gamma 1 CH1, vector Em351)) VH: QVQLVESGGGVVQPGRSLRLSCAASGFTFSTYGMHWVRQAPGKGLEWVAVIWYDGSNKNYADSVKGRFTISRDNSKNTLYLQMNSLRAEDTAVYYCARDLQGYRSSWYRMYYYYGMDVWGQGTTVTVSS VL: QTVVTQEPSLTVSPGGTVTLTCASSTGAVTSGYYPNWFQQKPGQAPRALIYSTSNKHSWTPARFSGSLLGGKAALTLSGVQPEDEAEYYCLLYYGGAQRWVFGGGTILTVLG | binds |
| RhD302.160B10 (Fab, V domains shown, Tested as Fab in E. coli periplasmic extract (VH on human gamma 1 CH1, vector Em351)) VH: QVQLVESGGGVVQPGRSLRLSCAASGFTFSSYGMHWVRQAPGKGLEWVAFISYDGSNKYYADSVKGRFTISRDNSKNTLSLQMNSLRAEDTAVYYCAKEHGYYRSSWYRNYYYYGMDVWGQGTTVTVSS VL: DIQLTQSPSSLSASVGDRVTITCRASQSISSYLNWYKQRPGKAPKLLIYAASTLQSGVPSRFSGSGSGTDFALTISSLQAEDFATYYCQQTYSTLWTFGQGTKVEITR | binds |
| RhD303.160B11 (Fab, V domains shown, Tested as Fab in E. coli periplasmic extract (VH on human gamma 1 CH1, vector Em351)) VH: QVQLVESGGGVVQPERSLRLSCAASGFTFSSYGMHWVRQAPGKGLEWVAVISYDGSNKYYADSVKGRFTISRDNSKNTLYLQMNSLRAEDTAVYYCAKDEVGYSSSWYRRYYYYAMDVWGQGTTVTVSS VL: EIVLTQSPGTLSLSPGETATLSCRASQSVSDRDLAWYQQKSGQSPRLLMYGGSTRAPGIPVRFSGSGSGTEFTLTISSLQSEDFAIYYCQHYHDWPPTFGQGTRLEIKR | binds |

More lines, now with the values ahead:

| binding result | Binder |
| --- | --- |
| binds | RhD317.144A02 (Fab, V domains shown, Tested as Fab in E. coli periplasmic extract (VH on human gamma 1 CH1, vector Em351)) VH: QVQLQESGPGLVKPSGTLSLTCAVSGGSIRGSNWWSWVRQPPGKGLEWIGEIHHGGSTNYNPSLKSRVTISVDKSKNRFSLKLSSVTAADTAVYYCARGTSYYDSSGYSFRGLVAFDIWGQGTMVTVSS VL: EIVLTQSPGTLSLSPGERATLSCRASQSVSSAFLAWYQQKPGQAPRLLIYGASSRATGIPDRFSGSGSGTDFTLTISRLEPEDFAVYYCQQYGSFSITFGQGTRLEIKR |
| binds | RhD301.160A04 (Fab, V domains shown, Tested as Fab in E. coli periplasmic extract (VH on human gamma 1 CH1, vector Em351)) VH: QVQLVESGGGVVQPGRSLRLSCAASGFTFSSYGMHWVRQAPGKGLEWVAVIWFDGGNKYYADSAKGRFTISRDNSKNTLYLQMNSLRAEDTAVYYCARDASVLSGLVTRRLVYYGMDVWGQGTTVTVSS VL: DVVMTQSPLSLPVTPGEPASISCRSSQSLLHRNGYNYLNWYLQKPGQSPQLLIYLGSNRASGVPDRFSGSGSGTDFTLKISGVEAEDVAFYYCMQGLRTPYTFGQGTKLEIKR |
| binds | RhD305.181E06 (Fab, V domains shown, Tested as Fab in E. coli periplasmic extract (VH on human gamma 1 CH1, vector Em351)) VH: QVQLVESGGGVVQPGRSLRLSCAASGFTFSSYGMHWVRQAPGKGLEWVAGIWYDGSNKYYADSVKGRFTISRDNSRNTMYLQMNSLRAEDTAVYYCAREQGGYSSSWYRRYYYYNMDLWGQGTTVTVSS VL: EIVLTQSPGSLSLSPGERATLSCRASQSVSSSYLAWYQQKPGQAPRLLIYGPSSRATGIPDRFSGSGSGTDFTLTISRLEPEDFAVYYCQHFGNSRGTFGQGTKVEIRR |
| binds | RhD306.223E11 (Fab, V domains shown, Tested as Fab in E. coli periplasmic extract (VH on human gamma 1 CH1, vector Em351)) VH: QVQLVESGGGVVQPGRSLRLSCAASGFTFSSYGMHWVRQAPGKGLEWVAVIWYDGSNKYYADSVKGRFTISRDNSKNTLYLQMNTLRDDDTAVYYCAREGTLYSSSWYRRYYYYGMDAWGQGTTVTVSS VL: EIVLTQSPGTLSLSPGERVTLSCRPSRYIASDYLAWYQLRPGQAPKLLIYGASSRATGIPDRFSGVGSPTDFTLTISRLEPEDFAMYYCHYSGGSPPYPFGQGTRLDIKR |
| binds | RhD307.230E11 (Fab, V domains shown, Tested as Fab in E. coli periplasmic extract (VH on human gamma 1 CH1, vector Em351)) VH: QVQLVETGGGVVQPGRSLRLSCAASGFTFSSYGMHWVRQAPGKGLEWVAGIWYDGSNKYYGDSVKGRFTISRDNSRNTLYLHMNSLRADDTAVYYCAREHGGSRSGWYTLRLAYYFDYWGQGTLVTVSS VL: DIQLTQSPSSLSASVGDRVTITCRASQYINVYLNWYQHKAGRAPKLLIYAASNLQSGVPPRFIGSGSGTDFTLTISSLQSEDFATYYCLQSFTVPRTFGPGTKVDVKR |
| binds | RhD304.164B06 (Fab, V domains shown, Tested as Fab in E. coli periplasmic extract (VH on human gamma 1 CH1, vector Em351)) VH: QVQLVQSGGGVVQPGRSLRLSCAASGFTFSSYGMHWVRQAPGKGLEWVAVIWYDGSNKYYADSVKGRFTISRDNSKNTLYLQMNSLRAEDTAVYYCARETVVVAAKIRNHYYYAMDVWGQGTTVTVSS VL: DIQMTQSPSSLSASLGGTVTLTCRSSQFISRYLNWYQQHPGKVPRLLISGASRLQRGVPSRFTGGGSGTDFTLTIKNVQPDDIATYFCQHSYRSGRAFGQGTTVEVKR |

molecular target: T1, Rhesus D antigen; assay: agglutination assay, Fab periplasmic extract on RhD(+)/RhD(-) RBC mix
Experimental: as §1, §2

| binding result | Binder |
| --- | --- |
| binds | RhD296.126A03 (Fab, V domains shown, Tested as Fab in E. coli periplasmic extract (VH on human gamma 1 CH1, vector Em351)) VH: EVQLVESGGGVVQPGRSLRLSCEASGFTFSNYGMHWFRQAPGKGLEWVAIIWYDGSNKHYADSVKGRFTISRDNSKNTLYLQMNSLRAEDTAVYFCAREIASRGYSRYLYYFDSWGQGTLVTVSS VL: DIQMTQSPSSLSASVGDRVTITCRASQSISSYLNWYQQKPGKAPKLLIFAASSLQSGVPSRFSGSGSGTDFSLTISSLQPEDFATYYCQQSYSSLALTFGGGTKVEIKR |
| binds | RhD161.119E09 (Fab, V domains shown, Tested as Fab in E. coli periplasmic extract (VH on human gamma 1 CH1, vector Em351)) VH: EVQLVESGGGVVQSGRSLRLSCAASGFTFSNNGMHWVRQAPGKGLEWVAFIWYDGSNKYYADSVKGRFTISRDNSKNTLYLQMDGLRAEDSAVYYCAREEIAARLYSRYHYAMDVWGQGTMVTVSS VL: DIQMTQSPSFLSASVGDRVTITCRASQGIRRYLAWFQQKPGKAPKLLIFSASTLQSGVPSRFSGSGSGTEFTLTISSLQPEDFATYYCQQLSSYPPYTFGQGTKLEIKR |
| binds | RhD160.119C07 (Fab, V domains shown, Tested as Fab in E. coli periplasmic extract (VH on human gamma 1 CH1, vector Em351)) VH: EVQLVESGGGVVQPGRSLRLSCAASGFTFSNYGMHWVRQAPGKGLEWVAVIWYDGSNRFYADSVKGRFTISRDNSKNTLYLQMNNLRAEDTALYSCAREITTTVVVRRHYLMDIWGQGTTVTVSS VL: DIQLTQSPSSLSASVGDRVSITCRASQGISNSLAWYQQKPGKVPKLLIYAASTLQSGVPSRFSGGGSGTDFTLTISSLQPEDVATYYCQKYNSAPFAFGPGTKVDIKR |
